Data taken from patent publication US20220220215A1 (CRESCENDO BIOLOGICS, published 2022).

T1: human HVEM (R&D Systems cat no. HVM-H5258) (human, UniProt Q92956 39-202, limits assumed)
T1 sequence (looked up): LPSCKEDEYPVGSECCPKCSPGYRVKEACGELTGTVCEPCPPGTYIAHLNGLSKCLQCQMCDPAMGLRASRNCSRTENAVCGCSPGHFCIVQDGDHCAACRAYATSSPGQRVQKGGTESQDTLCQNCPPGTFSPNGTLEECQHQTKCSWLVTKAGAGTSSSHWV

T2: human OX40-Fc (R&D Systems cat no. 3388-OX) (human, UniProt P43489 29-216, limits assumed)
T2 sequence (looked up): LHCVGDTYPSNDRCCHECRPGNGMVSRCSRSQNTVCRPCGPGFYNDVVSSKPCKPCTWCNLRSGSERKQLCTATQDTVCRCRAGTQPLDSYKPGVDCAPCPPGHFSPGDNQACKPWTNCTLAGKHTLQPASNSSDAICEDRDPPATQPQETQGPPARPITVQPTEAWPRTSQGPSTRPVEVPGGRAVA

T3: human GITR-Fc (R&D Systems cat no. 689-GR) (human, UniProt Q9Y5U5 26-161)
T3 construct: also called Glucocorticoid-induced TNFR-related
T3 sequence (looked up): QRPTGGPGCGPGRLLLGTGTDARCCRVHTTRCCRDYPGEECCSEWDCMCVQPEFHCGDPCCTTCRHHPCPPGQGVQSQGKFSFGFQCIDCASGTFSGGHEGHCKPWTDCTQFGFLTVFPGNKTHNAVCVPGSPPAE

T4: human HVEM (R&D Systems cat no. HVM-H5258) (human, UniProt Q92956 39-202, limits assumed)
T4 construct: Bought protein
T4 sequence (looked up): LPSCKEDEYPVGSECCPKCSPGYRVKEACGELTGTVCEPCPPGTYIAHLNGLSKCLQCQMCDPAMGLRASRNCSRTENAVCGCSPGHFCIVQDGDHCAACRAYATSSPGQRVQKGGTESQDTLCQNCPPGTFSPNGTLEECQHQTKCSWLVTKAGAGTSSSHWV

T5: human GITR-Fc (R&D Systems cat no. 689-GR) (human, UniProt Q9Y5U5 26-161)
T5 construct: Bought protein; also called Glucocorticoid-induced TNFR-related
T5 sequence (looked up): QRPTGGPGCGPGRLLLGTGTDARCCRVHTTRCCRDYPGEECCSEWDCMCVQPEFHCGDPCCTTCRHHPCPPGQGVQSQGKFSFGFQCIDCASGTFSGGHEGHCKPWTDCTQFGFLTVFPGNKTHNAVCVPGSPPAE

T6: human OX40-Fc (R&D Systems cat no. 3388-OX) (human, UniProt P43489 29-216)
T6 construct: Bought protein
T6 sequence (looked up): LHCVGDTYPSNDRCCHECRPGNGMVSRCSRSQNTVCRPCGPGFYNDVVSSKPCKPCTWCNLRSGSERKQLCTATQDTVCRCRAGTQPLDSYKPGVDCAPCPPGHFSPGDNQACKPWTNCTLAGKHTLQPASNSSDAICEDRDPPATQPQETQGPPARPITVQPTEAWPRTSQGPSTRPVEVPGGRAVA


Columns and labels:
[1] = molecular target: T1, human HVEM (R&D Systems cat no. …); assay: ELISA, plate-coated human HVEM; legend: No binding (-)
Protocol: (§1) Specificity of binding for CD137 over the tumour necrosis factor receptor family members OX40, GITR (Glucocorticoid-induced TNFR-related), CD40 and HVEM was determined using an ELISA assay. Nunc Maxisorp plates were coated with 1 ug/ml human CD137-Fc recombinant protein (Acro Biosystems 41B-H5258), human GITR-Fc (R&D Systems cat no. 689-GR) human OX40-Fc (R&D Systems cat no. 3388-OX), human CD40 (R&D Systems cat no. CDO-H5253), human HVEM (R&D Systems cat no. HVM-H5258) in PBS overnight at 4° C. then washed twice with PBS. Non-specific protein interactions were blocked by incubation with 1% (w/v) skimmed milk powder (Marvel®) in PBS/0.1% Tween-20 for 1 hour at room temperature. Plates were washed twice with PBS then VH or antibody control (1 ug/ml) added for 1 hour at room temperature. Following three washes with PBS/0.1% Tween-20 a 1:1000 dilution of anti His-HRP (VH detection) or anti mouse-HRP (positive control mouse monoclonal antibody detection) was added in 1% Marvel/PBS/0.1% Tween-20. The detection antibodies were allowed to bind for 1 hour at room temperature then the plates were washed twice in PBS/0.1% Tween-20 and once in PBS. The ELISA was developed using TMB substrate and the reaction was stopped by the addition of 50 ul 0.5M H₂SO₄ solution. The absorbance at 450 nm was measured using the BMG Pherastar.

[2] = molecular target: T7, Rhesus CD137-Fc tagged protein (rhesus, UniProt H9Z8K9 24-186); assay: BLI (Octet RED384), CD137-Fc on Protein G sensor, 1:1 model
T7 construct: extracellular domain; The Octet paragraph gives no catalogue number; also called rhCD137-Fc
Protocol: (§2) Binding kinetics of purified monovalent VH molecules were measured on a ForteBio Octet RED 384 instrument. Human and Rhesus CD137-Fc tagged protein was diluted to 5 μg/ml in kinetics buffer (0.05% Tween, 1×PBS) and coupled to Protein G biosensors (ForteBio cat no. 18-5082) via the Fc tag. VH were serially diluted (typically 1:2 dilution series starting with 200 nM, VH at the highest concentration) and binding to the CD137-Fc-coupled Protein G biosensors measured. Binding kinetics were determined from the (blank subtracted) sensor gram trace using 1:1 binding models and ForteBio Octet Data Analysis 9.0 software. Example kinetic and binding affinity data obtained is shown Table 18 (monovalent VH).

[3] = molecular target: T8, human CD137 expressed on CHO cells (human, UniProt Q07011 18-255); assay: FMAT/Mirrorball on CHO huCD137 cells
T8 construct: also called CHO huCD137; CHO human CD137 cells
Summary of the method: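 His-tagged VH molecules bound to CHO cells expressing human PD-1 or human CD137, with CHO parent cells as control, in PBS pH 7.4, 0.1% BSA, 0.05% sodium azide. Read by FMAT on Mirrorball (ex 488/640 nm); binding taken as FL2 median fluorescence intensity of FL5-gated events.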

[4] = molecular target: human CD40 (R&D Systems cat no. CDO-H5253) (human, UniProt P25942 21-193, limits assumed); assay: ELISA, plate-coated human CD40; legend: No binding (-)
Protocol: as §1

[5] = molecular target: T2, human OX40-Fc (R&D Systems cat no. …); assay: ELISA, plate-coated human OX40-Fc; legend: No binding (-)
Protocol: as §1

[6] = molecular target: T3, human GITR-Fc (R&D Systems cat no. …); assay: ELISA, plate-coated human GITR-Fc; legend: No binding (-)
Protocol: as §1

[7] = molecular target: T4, human HVEM (R&D Systems cat no. …); assay: ELISA, plate coated with 1 ug/ml recombinant protein, anti His-HRP detection
Protocol: as §1

[8] = molecular target: T5, human GITR-Fc (R&D Systems cat no. …); assay: as above
Protocol: as §1

[9] = molecular target: T6, human OX40-Fc (R&D Systems cat no. …); assay: as above
Protocol: as §1

[10] = molecular target: T9, human CD40 (R&D Systems cat no. CDO-H5253) (human, UniProt P25942 21-193, limits assumed); assay: as above
T9 construct: Bought protein
Protocol: as §1

[11] = molecular target: T10, full-length rhesus CD137 (Sino Biologics 90847-K02H), huFc tag (rhesus, UniProt F6W5G6 24-186); assay: BLI (ForteBio Octet RED 384), CD137-Fc on Protein G biosensors, 1:1 model
T10 construct: Bought protein; also called rhCD137-Fc; Rhesus CD137-Fc tagged protein; not shown: human Fc tag (huFc) and any linker to it
Protocol: as §2

| Binder | binding result [1] | Kd [2] [nM] | koff [2] [s⁻¹] | kon [2] [M⁻¹ s⁻¹] | EC50 [3] [nM] | binding result [4] | binding result [5] | binding result [6] | binding result [7] | binding result [8] | binding result [9] | binding result [10] | Kd [11] [nM] |
| --- | --- | --- | --- | --- | --- | --- | --- | --- | --- | --- | --- | --- | --- |
| 003BB172-E01 (VHH, also called 003BB1172-E01) VHH: EVQLVESGGGLVQPGGSLRLSCAASGFTFSNYGMHWVRQAPGKRLEWVAVISNDGNTKTYADSVKGRFTISRDNSKNMLYLQMTSLRTEDTAVYYCAQDETTTVTASYYFDYWGQGTLVTVSS | no binding (tested: 1 ug/ml) | 27.5 | 0.00131 | 47800 | 1.73 | no binding (tested: 1 ug/ml) | no binding (tested: 1 ug/ml) | no binding (tested: 1 ug/ml) | – | – | – | – | – |
| 003BB172-E01 (VHH, Human VH single domain antibody (Humabody), monovalent, His-tagged in the assays; also called 003BB1172-E01; not shown: C-terminal 6xHIS tag) VH: EVQLVESGGGLVQPGGSLRLSCAASGFTFSNYGMHWVRQAPGKRLEWVAVISNDGNTKTYADSVKGRFTISRDNSKNMLYLQMTSLRTEDTAVYYCAQDETTTVTASYYFDYWGQGTLVTVSS | – | – | – | – | – | – | – | – | no binding (tested: 1 ug/ml) | no binding (tested: 1 ug/ml) | no binding (tested: 1 ug/ml) | no binding (tested: 1 ug/ml) | – |
| 003BB172-E01-5 (VHH, Human VH single domain antibody, His-tagged in the assays; not shown: C-terminal 6xHIS tag) VH: EVQLVESGGGLVQPGGSLRLSCAASGFTFSNYGMHWVRQAPGKRLEWVAVISNDGNTKTYADSVKGRFTISRDNSKNTLYLQMNSLRTEDTAVYYCAQDETTTVTASYYFDYWGQGTLVTVSS | – | – | – | – | – | – | – | – | – | – | – | – | 11.5 |
| 003BB172-E01-14 (VHH, Human VH single domain antibody, monovalent) VHH: EVQLVESGGGVVQPGRSLRLSCAASGFTFSNYGMHWVRQAPGKGLEWVAVISNDGNTKTYADSVKGRFTISRDNSKNTLYLQMNSLRAEDTAVYYCAQDETTTVTASYYFDYWGQGTLVTVSS | no binding (tested: 1 ug/ml) | 25.9 | 0.00159 | 61300 | 1.29 | no binding (tested: 1 ug/ml) | no binding (tested: 1 ug/ml) | no binding (tested: 1 ug/ml) | – | – | – | – | – |
| 003BB172-E01-14 (VHH, Human VH single domain antibody, His-tagged in the assays; not shown: C-terminal 6xHIS tag) VH: EVQLVESGGGVVQPGRSLRLSCAASGFTFSNYGMHWVRQAPGKGLEWVAVISNDGNTKTYADSVKGRFTISRDNSKNTLYLQMNSLRAEDTAVYYCAQDETTTVTASYYFDYWGQGTLVTVSS | – | – | – | – | – | – | – | – | no binding (tested: 1 ug/ml) | no binding (tested: 1 ug/ml) | no binding (tested: 1 ug/ml) | no binding (tested: 1 ug/ml) | – |
| 003BB172-E01-8 (VHH, Human VH single domain antibody, His-tagged in the assays; not shown: C-terminal 6xHIS tag) VHH: EVQLVESGGGVVQPGGSLRLSCAASGFTFSNYGMHWVRQAPGKGLEWVAVISNDGNTKTYADSVKGRFTISRDNSKNTLYLQMNSLRTEDTAVYYCAQDETTTVTASYYFDYWGQGTLVTVSS | – | – | – | – | – | – | – | – | – | – | – | – | 41.4 |
